Literature values in PMC6959264.

Experiments:
[1] = target: Asp85 (UniProt position 98, WARYADWLFTT)
[2] = target: Asp212 (UniProt position 225, LFMVLDVSAKV)
[3] = target: Asp96 (UniProt position 109, PLLLLDLALLV)
[4] = target: Asp74 (UniProt position 74, WARYIDWVITT); details: original (unphotolyzed, dark) state implied

Substance: Bacteriorhodopsin (BR) (Halobacterium salinarum)
- pKa [1]: 2.6
- pKa [2]: <2.5
- pKa [3]: >12.0

Substance: Rubrobacter xylanophilus rhodopsin (RxR) (Rubrobacter xylanophilus (DSM 9941))
- pKa [4]: 1.3
